The values below come from publication PMC4751435 (2016).

To fix the notation:
B1: luciferase-FOXP2 (wild-type, full-length 1-715) [human] / YFP-PIAS1 (wild-type) [human] (parent complex)
chain 1: MMQESATETISNSSMNQNGMSTLSSQLDAGSRDGRSSGDTSSEVSTVELLHLQQQQALQAARQLLLQQQTSGLKSPKSSDKQRPLQVPVSVAMMTPQVITPQQMQQILQQQVLSPQQLQALLQQQQAVMLQQQQLQEFYKKQQEQLHLQLLQQQQQQQQQQQQQQQQQQQQQQQQQQQQQQQQQQQQQQQQHPGKQAKEQQQQQQQQQQLAAQQLVFQQQLLQMQQLQQQQHLLSLQRQGLISIPPGQAALPVQSLPQAGLSPAEIQQLWKEVTGVHSMEDNGIKHGGLDLTTNNSSSTTSSNTSKASPPITHHSIVNGQSSVLSARRDSSSHEETGASHTLYGHGVCKWPGCESICEDFGQFLKHLNNEHALDDRSTAQCRVQMQVVQQLEIQLSKERERLQAMMTHLHMRPSEPKPSPKPLNLVSSVTMSKNMLETSPQSLPQTPTTPTAPVTPITQGPSVITPASVPNVGAIRRRHSDKYNIPMSSEIAPNYEFYKNADVRPPFTYATLIRQAIMESSDRQLTLNEIYSWFTRTFAYFRRNAATWKNAVRHNLSLHKCFVRVENVKGAVWTVDEVEYQKRRSQKITGSPTLVKNIPTSLGYGAALNASLQAALAESSLPLLSNPGLINNASSGLLQAVHEDLNGSLDHIDSNGNSSPGCSPQPHIHSIHVKEEPVIAEDEDCPMSLVTTANHSPELEDDREIEEEPLSEDLE
chain 2: MADSAELKQMVMSLRVSELQVLLGYAGRNKHGRKHELLTKALHLLKAGCSPAVQMKIKELYRRRFPQKIMTPADLSIPNVHSSPMPATLSPSTIPQLTYDGHPASSPLLPVSLLGPKHELELPHLTSALHPVHPDIKLQKLPFYDLLDELIKPTSLASDNSQRFRETCFAFALTPQQVQQISSSMDISGTKCDFTVQVQLRFCLSETSCPQEDHFPPNLCVKVNTKPCSLPGYLPPTKNGVEPKRPSRPINITSLVRLSTTVPNTIVVSWTAEIGRNYSMAVYLVKQLSSTVLLQRLRAKGIRNPDHSRALIKEKLTADPDSEIATTSLRVSLLCPLGKMRLTIPCRALTCSHLQCFDATLYIQMNEKKPTWVCPVCDKKAPYEHLIIDGLFMEILKYCTDCDEIQFKEDGTWAPMRSKKEVQEVSASYNGVDGCLSSTLEHQVASHHQSSNKNKKVEVIDLTIDSSSDEEEEEPSAKRTCPSLSPTSPLNNKGILSLPHQASPVSRTPSLPAVDTSYINTSLIQDYRHPFHMTPMPYDLQGLDFFPFLSGDNQHYNTSLLAAAAAAVSDDQDLLHSSRFFPYTSSQMFLDQLSAGGSTSLPTTNGSSSGSNSSLVSSNSLRESHSHTVTNRSSTDTASIFGIIPDIISLD
B2: luciferase-FOXP2 (wild-type, full-length 1-715) [human] / YFP-PIAS4 [human] (parent complex)
chain 1: B1 chain 1
chain 2: MAAELVEAKNMVMSFRVSDLQMLLGFVGRSKSGLKHELVTRALQLVQFDCSPELFKKIKELYETRYAKKNSEPAPQPHRPLDPLTMHSTYDRAGAVPRTPLAGPNIDYPVLYGKYLNGLGRLPAKTLKPEVRLVKLPFFNMLDELLKPTELVPQNNEKLQESPCIFALTPRQVELIRNSRELQPGVKAVQVVLRICYSDTSCPQEDQYPPNIAVKVNHSYCSVPGYYPSNKPGVEPKRPCRPINLTHLMYLSSATNRITVTWGNYGKSYSVALYLVRQLTSSELLQRLKTIGVKHPELCKALVKEKLRLDPDSEIATTGVRVSLICPLVKMRLSVPCRAETCAHLQCFDAVFYLQMNEKKPTWMCPVCDKPAPYDQLIIDGLLSKILSECEDADEIEYLVDGSWCPIRAEKERSCSPQGAILVLGPSDANGLLPAPSVNGSGALGSTGGGGPVGSMENGKPGADVVDLTLDSSSSSEDEEEEEEEEEDEDEEGPRPKRRCPFQKGLVPAC
B3: luciferase-FOXP2 (wild-type, full-length 1-715) [human] / YFP-PIAS3 [human] (parent complex)
chain 1: B1 chain 1
chain 2: MAELGELKHMVMSFRVSELQVLLGFAGRNKSGRKHELLAKALHLLKSSCAPSVQMKIKELYRRRFPRKTLGPSDLSLLSLPPGTSPVGSPGPLAPIPPTLLAPGTLLGPKREVDMHPPLPQPVHPDVTMKPLPFYEVYGELIRPTTLASTSSQRFEEAHFTFALTPQQVQQILTSREVLPGAKCDYTIQVQLRFCLCETSCPQEDYFPPNLFVKVNGKLCPLPGYLPPTKNGAEPKRPSRPINITPLARLSATVPNTIVVNWSSEFGRNYSLSVYLVRQLTAGTLLQKLRAKGIRNPDHSRALIKEKLTADPDSEVATTSLRVSLMCPLGKMRLTVPCRALTCAHLQSFDAALYLQMNEKKPTWTCPVCDKKAPYESLIIDGLFMEILSSCSDCDEIQFMEDGSWCPMKPKKEASEVCPPPGYGLDGLQYSPVQGGDPSENKKKVEVIDLTIESSSDEEDLPPTKKHCSVTSAAIPALPGSKGVLTSGHQPSSVLRSPAMGTLGGDFLSSLPLHEYPPAFPLGADIQGLDLFSFLQTESQHYGPSVITSLDEQDALGHFFQYRGTPSHFLGPLAPTLGSSHCSATPAPPPGRVSSIVAPGGALREGHGGPLPSGPSLTGCRSDIISLD
B4: luciferase-FOXP2 (wild-type, full-length 1-715) [human] / YFP-PIAS2 [human] (parent complex)
chain 1: B1 chain 1
chain 2: MADFEELRNMVSSFRVSELQVLLGFAGRNKSGRKHDLLMRALHLLKSGCSPAVQIKIRELYRRRYPRTLEGLSDLSTIKSSVFSLDGGSSPVEPDLAVAGIHSLPSTSVTPHSPSSPVGSVLLQDTKPTFEMQQPSPPIPPVHPDVQLKNLPFYDVLDVLIKPTSLVQSSIQRFQEKFFIFALTPQQVREICISRDFLPGGRRDYTVQVQLRLCLAETSCPQEDNYPNSLCIKVNGKLFPLPGYAPPPKNGIEQKRPGRPLNITSLVRLSSAVPNQISISWASEIGKNYSMSVYLVRQLTSAMLLQRLKMKGIRNPDHSRALIKEKLTADPDSEIATTSLRVSLMCPLGKMRLTIPCRAVTCTHLQCFDAALYLQMNEKKPTWICPVCDKKAAYESLILDGLFMEILNDCSDVDEIKFQEDGSWCPMRPKKEAMKVSSQPCTKIESSSVLSKPCSVTVASEASKKKVDVIDLTIESSSDEEEDPPAKRKCIFMSETQSSPTKGVLMYQPSSVRVPSVTSVDPAAIPPSLTDYSVPFHHTPISSMSSDLPGLDFLSLIPVDPQYCPPMFLDSLTSPLTASSTSVTTTSSHESSTHVSSSSSRSETGVITSSGSNIPDIISLD

Variants of B1 are the subject of the first assay. Briefly: BRET; control donor est. 0.036; read off a plot. (In general: BRET reads energy transfer from a luciferase to a nearby fluorophore.)
For chain 1 K674R, the response is about 0.11 BRET ratio.

In a further assay the parent is B1. Briefly: BRET; HEK293 cells; n = 3; control donor (nuclear-targeted luciferase) est. 0.000; read off a plot.
Turning to chain 1 R553H, the response was about 0.014 BRET ratio.

In the next assay the parent is B2. Briefly: BRET; control donor est. 0.026; read off a plot.
Consider chain 1 K674R, for which the response is about 0.071 BRET ratio.

A further assay covers variants of B2. Briefly: BRET; HEK293 cells; n = 3; control donor (nuclear-targeted luciferase) est. 0.001; read off a plot.
Regarding chain 1 R553H, the response was about -0.006 BRET ratio.

In the next assay the parent is B3. Briefly: BRET; control donor est. 0.040; read off a plot.
With chain 1 K674R, the response is about 0.087 BRET ratio.

The variants in another assay derive from B3. Briefly: BRET; HEK293 cells; n = 3; control donor (nuclear-targeted luciferase) est. -0.003; read off a plot.
As to chain 1 R553H, the response is about 0.026 BRET ratio.

Another assay covers variants of B4. Briefly: BRET; HEK293 cells; n = 3; control donor (nuclear-targeted luciferase) est. -0.008; read off a plot.
Consider chain 1 R553H, for which the response is about -0.005 BRET ratio.

The variants in another assay derive from B4. Briefly: BRET; control donor est. 0.030; read off a plot.
With chain 1 K674R, the response was about 0.047 BRET ratio.
